Consider one variant from IntAct's records for PubMed 18617507.

The labels stand for the following.
B1: Serine/threonine-protein kinase VRK1 (Homo sapiens), Q99986 (parent)
chain: MPRVKAAQAGRQSSAKRHLAEQFAVGEIITDMAKKEWKVGLPIGQGGFGCIYLADMNSSESVGSDAPCVVKVEPSDNGPLFTELKFYQRAAKPEQIQKWIRTRKLKYLGVPKYWGSGLHDKNGKSYRFMIMDRFGSDLQKIYEANAKRFSRKTVLQLSLRILDILEYIHEHEYVHGDIKASNLLLNYKNPDQVYLVDYGLAYRYCPEGVHKEYKEDPKRCHDGTIEFTSIDAHNGVAPSRRGDLEILGYCMIQWLTGHLPWEDNLKDPKYVRDSKIRYRENIASLMDKCFPEKNKPGEIAKYMETVKLLDYTEKPLYENLRDILLQGLKAIGSKDDGKLDLSVVENGGLKAKTITKKRKKEIEESKEPGVEDTEWSNTQTEEAIQTRSRTRKRVQK

Variants of B1 are the subject of the experiment. Particulars: with ran_human RAN.
For K179E, the “effect of a mutation on the interaction” value was “decreasing interaction”.
